In the supplement of paper PMC7125110:
± gives the standard error. For some assays here: This sample holds only a part of the variants without activity.

B1: glmS ribozyme (parent)
chain: AUAAAAGCGCCAGAACUACAGAAAUGUAGUUGACGAGGAGGAGGUUUAUCGAAUUUUCGGCGGAUGCCUCCAAA

Experiments:
Conditions in all cases: with glucosamine-6-phosphate
glucosamine-6-phosphate [1] = variants of: B1; experiment: kcat; higher = faster cleavage; RNA array
Procedure, shortened: (§1)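 Weighted Michaelis–Menten fits across concentrations supplied kcat and KM, based on kobs from one- or two-exponential decay fits to normalised per-tile medians. The data came from barcoded ribozyme variants transcribed in situ by E. coli RNA polymerase on sequenced MiSeq chips and tracked at 37 °C by a hybridised Cy3 probe. Glucosamine-6-phosphate (40 μM to 10 mM) in HEPES/KCl/Mg(OAc)2 buffer was flowed in.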

glucosamine-6-phosphate [2] = variants of: B1; experiment: self-cleavage kobs at 2500 uM GlcN6P; higher = faster cleavage; RNA array
Procedure, shortened: as §1

glucosamine-6-phosphate [3] = variants of: B1; experiment: self-cleavage kobs at 10000 uM GlcN6P; higher = faster cleavage; RNA array
Procedure, shortened: as §1

glucosamine-6-phosphate [4] = variants of: B1; experiment: KM; higher = weaker cofactor use; RNA array
Procedure, shortened: as §1

glucosamine-6-phosphate [5] = variants of: B1; experiment: self-cleavage kobs at 640 uM GlcN6P; higher = faster cleavage; RNA array
Procedure, shortened: as §1

glucosamine-6-phosphate [6] = variants of: B1; experiment: self-cleavage kobs at 40 uM GlcN6P; higher = faster cleavage; RNA array
Procedure, shortened: as §1

glucosamine-6-phosphate [7] = variants of: B1; experiment: self-cleavage kobs at 160 uM GlcN6P; higher = faster cleavage; RNA array
Procedure, shortened: as §1

Variant: C58U U69C
- kcat (glucosamine-6-phosphate [1]): 2.82e-05 ± 7e-06 s⁻¹
- self-cleavage kobs at 2500 uM GlcN6P (glucosamine-6-phosphate [2]): 5.56e-05 ± 1.6e-05 s⁻¹
- self-cleavage kobs at 10000 uM GlcN6P (glucosamine-6-phosphate [3]): 2.52e-05 ± 5.6e-06 s⁻¹

Variant: G59A C70U
- kcat (glucosamine-6-phosphate [1]): 0.000157 ± 9e-06 s⁻¹
- KM (glucosamine-6-phosphate [4]): 1.97 ± 0.32 mM
- self-cleavage kobs at 640 uM GlcN6P (glucosamine-6-phosphate [5]): 4.24e-05 ± 8e-06 s⁻¹
- self-cleavage kobs at 2500 uM GlcN6P (glucosamine-6-phosphate [2]): 8.29e-05 ± 9.8e-06 s⁻¹
- self-cleavage kobs at 10000 uM GlcN6P (glucosamine-6-phosphate [3]): 0.000133 ± 1.1e-05 s⁻¹

Variant: G59A C70G
- kcat (glucosamine-6-phosphate [1]): 2.32e-05 ± 4.8e-06 s⁻¹
- self-cleavage kobs at 640 uM GlcN6P (glucosamine-6-phosphate [5]): 2.83e-05 ± 1.3e-05 s⁻¹

Variant: U57C C67G
- kcat (glucosamine-6-phosphate [1]): 2.59e-05 ± 3.7e-06 s⁻¹
- self-cleavage kobs at 40 uM GlcN6P (glucosamine-6-phosphate [6]): < 1e-05 s⁻¹
- self-cleavage kobs at 2500 uM GlcN6P (glucosamine-6-phosphate [2]): 3.12e-05 ± 1.1e-05 s⁻¹
- self-cleavage kobs at 10000 uM GlcN6P (glucosamine-6-phosphate [3]): 2.21e-05 ± 8.5e-06 s⁻¹

Variant: G59U G66U
- kcat (glucosamine-6-phosphate [1]): < 1e-05 s⁻¹
- self-cleavage kobs at 40 uM GlcN6P (glucosamine-6-phosphate [6]): < 1e-05 s⁻¹
- self-cleavage kobs at 10000 uM GlcN6P (glucosamine-6-phosphate [3]): < 1e-05 s⁻¹

Variant: G59U G66A
- kcat (glucosamine-6-phosphate [1]): 2.67e-05 ± 2.5e-07 s⁻¹
- KM (glucosamine-6-phosphate [4]): 3.11 ± 0.1 mM

Variant: U54G U65G
- kcat (glucosamine-6-phosphate [1]): 0.00368 ± 0.00099 s⁻¹
- KM (glucosamine-6-phosphate [4]): 3.43 ± 1.3 mM
- self-cleavage kobs at 40 uM GlcN6P (glucosamine-6-phosphate [6]): 5.92e-05 ± 6.8e-06 s⁻¹
- self-cleavage kobs at 160 uM GlcN6P (glucosamine-6-phosphate [7]): 0.00012 ± 2.1e-05 s⁻¹
- self-cleavage kobs at 640 uM GlcN6P (glucosamine-6-phosphate [5]): 0.000629 ± 9e-05 s⁻¹
- self-cleavage kobs at 2500 uM GlcN6P (glucosamine-6-phosphate [2]): 0.00144 ± 0.00021 s⁻¹
- self-cleavage kobs at 10000 uM GlcN6P (glucosamine-6-phosphate [3]): 0.00282 ± 0.00029 s⁻¹

Variant: U57G U69C
- kcat (glucosamine-6-phosphate [1]): 1.77e-05 ± 7.2e-06 s⁻¹

Variant: U54G G60A
- kcat (glucosamine-6-phosphate [1]): 2.28e-05 ± 5.4e-06 s⁻¹
- self-cleavage kobs at 160 uM GlcN6P (glucosamine-6-phosphate [7]): < 1e-05 s⁻¹

Variant: U55A C58A
- kcat (glucosamine-6-phosphate [1]): 0.000722 ± 7.6e-05 s⁻¹
- KM (glucosamine-6-phosphate [4]): 4.62 ± 0.8 mM
- self-cleavage kobs at 640 uM GlcN6P (glucosamine-6-phosphate [5]): 9.44e-05 ± 2e-05 s⁻¹
- self-cleavage kobs at 2500 uM GlcN6P (glucosamine-6-phosphate [2]): 0.000254 ± 4.5e-05 s⁻¹
- self-cleavage kobs at 10000 uM GlcN6P (glucosamine-6-phosphate [3]): 0.000491 ± 7.2e-05 s⁻¹

Variant: U56A G60A
- kcat (glucosamine-6-phosphate [1]): 2.59e-05 ± 2.9e-06 s⁻¹
- self-cleavage kobs at 10000 uM GlcN6P (glucosamine-6-phosphate [3]): 2.33e-05 ± 1.2e-05 s⁻¹

Variant: U57A C68U
- kcat (glucosamine-6-phosphate [1]): 0.00017 ± 1.9e-05 s⁻¹
- KM (glucosamine-6-phosphate [4]): 2.5 ± 0.56 mM
- self-cleavage kobs at 640 uM GlcN6P (glucosamine-6-phosphate [5]): 3.78e-05 ± 8.1e-06 s⁻¹
- self-cleavage kobs at 2500 uM GlcN6P (glucosamine-6-phosphate [2]): 7.94e-05 ± 1e-05 s⁻¹
- self-cleavage kobs at 10000 uM GlcN6P (glucosamine-6-phosphate [3]): 0.000143 ± 2.2e-05 s⁻¹

Variant: U54G C70A
- kcat (glucosamine-6-phosphate [1]): 0.000123 ± 2.4e-05 s⁻¹
- self-cleavage kobs at 40 uM GlcN6P (glucosamine-6-phosphate [6]): 8.02e-05 ± 1.4e-05 s⁻¹
- self-cleavage kobs at 160 uM GlcN6P (glucosamine-6-phosphate [7]): 7.71e-05 ± 1.8e-05 s⁻¹
- self-cleavage kobs at 640 uM GlcN6P (glucosamine-6-phosphate [5]): 0.000198 ± 2.9e-05 s⁻¹
- self-cleavage kobs at 2500 uM GlcN6P (glucosamine-6-phosphate [2]): 0.000143 ± 2.9e-05 s⁻¹
- self-cleavage kobs at 10000 uM GlcN6P (glucosamine-6-phosphate [3]): 0.000109 ± 1.6e-05 s⁻¹

Variant: A53U G63C
- kcat (glucosamine-6-phosphate [1]): < 1e-05 s⁻¹

Variant: U54A A64G
- kcat (glucosamine-6-phosphate [1]): 0.0348 ± 0.011 s⁻¹
- KM (glucosamine-6-phosphate [4]): 2.31 ± 0.83 mM
- self-cleavage kobs at 40 uM GlcN6P (glucosamine-6-phosphate [6]): 0.00058 ± 7.4e-05 s⁻¹
- self-cleavage kobs at 160 uM GlcN6P (glucosamine-6-phosphate [7]): 0.00313 ± 0.0007 s⁻¹
- self-cleavage kobs at 640 uM GlcN6P (glucosamine-6-phosphate [5]): 0.00654 ± 0.0014 s⁻¹
- self-cleavage kobs at 10000 uM GlcN6P (glucosamine-6-phosphate [3]): 0.029 ± 0.0072 s⁻¹

Variant: U56A C70A
- kcat (glucosamine-6-phosphate [1]): 8.96e-05 ± 1.4e-05 s⁻¹
- self-cleavage kobs at 40 uM GlcN6P (glucosamine-6-phosphate [6]): 3.68e-05 ± 1.1e-05 s⁻¹
- self-cleavage kobs at 160 uM GlcN6P (glucosamine-6-phosphate [7]): 5.73e-05 ± 1.1e-05 s⁻¹
- self-cleavage kobs at 640 uM GlcN6P (glucosamine-6-phosphate [5]): 7.05e-05 ± 1.1e-05 s⁻¹
- self-cleavage kobs at 2500 uM GlcN6P (glucosamine-6-phosphate [2]): 0.000153 ± 2.3e-05 s⁻¹
- self-cleavage kobs at 10000 uM GlcN6P (glucosamine-6-phosphate [3]): 8.51e-05 ± 9.4e-06 s⁻¹

Variant: U56A C70G
- kcat (glucosamine-6-phosphate [1]): 0.000119 ± 1.4e-05 s⁻¹
- self-cleavage kobs at 40 uM GlcN6P (glucosamine-6-phosphate [6]): 4.01e-05 ± 1e-05 s⁻¹
- self-cleavage kobs at 160 uM GlcN6P (glucosamine-6-phosphate [7]): 8.18e-05 ± 1e-05 s⁻¹
- self-cleavage kobs at 640 uM GlcN6P (glucosamine-6-phosphate [5]): 0.000105 ± 1.1e-05 s⁻¹
- self-cleavage kobs at 2500 uM GlcN6P (glucosamine-6-phosphate [2]): 0.000153 ± 1.5e-05 s⁻¹
- self-cleavage kobs at 10000 uM GlcN6P (glucosamine-6-phosphate [3]): 0.0001 ± 1.1e-05 s⁻¹

Variant: U54A C58G
- kcat (glucosamine-6-phosphate [1]): 0.000169 ± 2.8e-05 s⁻¹
- KM (glucosamine-6-phosphate [4]): 3.66 ± 1.7 mM
- self-cleavage kobs at 40 uM GlcN6P (glucosamine-6-phosphate [6]): < 1e-05 s⁻¹
- self-cleavage kobs at 2500 uM GlcN6P (glucosamine-6-phosphate [2]): 7.4e-05 ± 2.3e-05 s⁻¹
- self-cleavage kobs at 10000 uM GlcN6P (glucosamine-6-phosphate [3]): 0.000123 ± 2.1e-05 s⁻¹
